Measured values published in US12269859B2, “Synthetic immune receptors and methods of use thereof” (Angeles Therapeutics, Inc., priority 2016, dated 2025).

Test system: target antigen-expressing cell line
Assay: Jurkat NFAT-GFP assay, coculture with target cell lines expressing the respective target antigen (summary Table 10A)
Format: cell-based, human
Parameters: key: The signs +/−, +, 2+ etc. after the name of the cell lines indicate the relative degree of positivity on the Jurkat-NFAT-GFP assay as measured by the % GFP positive cells; +: relative degree of positivity on the Jurkat-NFAT-GFP assay as measured by the % GFP positive cells; 2+: relative degree of positivity on the Jurkat-NFAT-GFP assay as measured by the % GFP positive cells
Conditions: for NFAT-GFP ASSAY Positive Cell lines: L428: SIR-expressing Jurkat-NFAT-GFP cells cocultured with L428
Summary of the method: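 Positivity is scored when SIR-expressing reporter Jurkat cells show more GFP-positive cells than parental controls after coculture with the antigen-bearing line. Effector-to-target ratio is about 1:2, coculture lasts roughly 4–18 hours, and GFP is quantified by FACS.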

Row | Molecule | NFAT-GFP ASSAY Positive Cell lines (coculture with U266 cells) | NFAT-GFP ASSAY Positive Cell lines: L428 (relative % GFP positive cells) | other results
1 | 083116-F05 (protein, Polynucleotide encoding a Synthetic Immune Receptor (SIR)) MALPVTALLLPLALLLHAARPLEGKPIPNPLLGLDSTGSGEDLKNVFPPEVAVFEPSKAEIAHTQKATLVCLATGFYPDHVELSWWVNGKEVHSGVCTDPQPLKEQPALNDSRYCLSSRLRVSATFWQNPRNHFRCQVQFYGLSENDEWTQDRAKPVTQIVSAEAWGRADCGITSASYHQGVLSATILYEILLGKATLYAVLVSALVLMAMVKRKDSRGRAKRSGSGATNFSLLKQAGDVEENPGPTSMALPVTALLLPLALLLHAARPDIQMTQSTSSLSASLGDRVTISCSASQGINNYLNWYQQKPDGTVELLIYYTSTLQSGVPSRFSGSGSGTDYSLTISNLEPEDIGTYYCQQYSKLPRTFGGGTKLEIKGGGGSGGGGSGGGGSQVQLQQSGSELMMPGASVKISCKATGYTFSNYWIEWVKQRPGHGLEWIGEILPGTGRTIYNEKFKGKATFTADISSNTVQMQLSSLTSEDSAVYYCARRDYYGNFYYAMDYWGQGTSVTVSSTREQKLISEEDLGSGTPFPSLAPPIMLLVDGKQQMVVVCLVLDVAPPGLDSPIWFSAGNGSALDAFTYGPSPATDGTWTNLAHLSLPSEELASWEPLVCHTGPGAEGHSRSTQPMHLSGEASTARTCPQEPLRGTPGGALWLGVLRLLLFKLLLFDLLLTCSCLCDPAGPLPSPATTTRLRALGSHRLHPATETGGREATSSPRPQPRDRRWGDTPPGRKPGSPVRAKRSGSGVKQTLNFDLLKLAGDVESNPGPSRSRGHMTEYKPTVRLATRDDVPRAVRTLAAAFADYPATRHTVDPDRHIERVTELQELFLTRVGLDIGKVWVADDGAAVAVWTTPESVEAGAVFAEIGPRMAELSGSRLAAQQQMEGLLAPHRPKEPAWFLATVGVSPDHQGKGLGSAVVLPGVEAAERAGVPAFLETSAPRNLPFYERLGFTVTADVEVPEGPRTWCMTRKPGA | U266 (+/−) |  | 
2 | 090116-H02 (protein, Synthetic Immune Receptor (SIR)) MALPVTALLLPLALLLHAARPLEGKPIPNPLLGLDSTGSGEDLKNVFPPEVAVFEPSKAEIAHTQKATLVCLATGFYPDHVELSWWVNGKEVHSGVCTDPQPLKEQPALNDSRYCLSSRLRVSATFWQNPRNHFRCQVQFYGLSENDEWTQDRAKPVTQIVSAEAWGRADCGITSASYHQGVLSATILYEILLGKATLYAVLVSALVLMAMVKRKDSRGRAKRSGSGATNFSLLKQAGDVEENPGPTSMALPVTALLLPLALLLHAARPDIQMTQSTSSLSASLGDRVTISCSASQGINNYLNWYQQKPDGTVELLIYYTSTLQSGVPSRFSGSGSGTDYSLTISNLEPEDIGTYYCQQYSKLPRTFGGGTKLEIKGGGGSGGGGSGGGGSQVQLQQSGSELMMPGASVKISCKATGYTFSNYWIEWVKQRPGHGLEWIGEILPGTGRTIYNEKFKGKATFTADISSNTVQMQLSSLTSEDSAVYYCARRDYYGNFYYAMDYWGQGTSVTVSSTREQKLISEEDGSGIQNPDPAVYQLRDSKSSDKSVCLFTDFDSQTNVSQSKDSDVYITDKCVLDMRSMDFKSNSAVAWSNKSDFACANAFNNSIIPEDTFFPSSDVPCDVKLVEKSFETDTNLNFQNLSVIGFRILLLKVAGFNLLMTLRLWSSRAKRSGSGVKQTLNFDLLKLAGDVESNPGPSRGHMTEYKPTVRLATRDDVPRAVRTLAAAFADYPATRHTVDPDRHIERVTELQELFLTRVGLDIGKVWVADDGAAVAVWTTPESVEAGAVFAEIGPRMAELSGSRLAAQQQMEGLLAPHRPKEPAWFLATVGVSPDHQGKGLGSAVVLPGVEAAERAGVPAFLETSAPRNLPFYERLGFTVTADVEVPEGPRTWCMTRKPGA | L363 (+), U266 (+) |  | NFAT-GFP ASSAY Positive Cell lines (coculture with L363 cells): L363 (+), U266 (+)
3 | 072717-G01 (protein) MALPVTALLLPLALLLHAARPLEGKPIPNPLLGLDSTGSGEDLKNVFPPEVAVFEPSKAEIAHTQKATLVCLATGFYPDHVELSWWVNGKEVHSGVCTDPQPLKEQPALNDSRYCLSSRLRVSATFWQNPRNHFRCQVQFYGLSENDEWTQDRAKPVTQIVSAEAWGRADCGITSASYHQGVLSATILYEILLGKATLYAVLVSALVLMAMVKRKDSRGRAKRSGSGATNFSLLKQAGDVEENPGPTSMALPVTALLLPLALLLHAARPEFAVQLVESGGGLVQAGDSLRLTCTASGRAFSTYFMAWFRQAPGKEREFVAGIAWSGGSTAYADSVKGRFTISRDNAKNTVYLQMNSLKSEDTAVYYCASRGIEVEEFGAWGQGTQVTVSSPGGGGSPQVQLVESGGGLVQAGGSLRLSCAASGGTLSKNTVAWFRQAPGKERGFVASITWDGRTTYYADSVKGRFTISRDNAKNTVYLQMNSLKPEDTAVYVCADLGKWPAGPADYWGQGTQVTVSSEVAALEKEVAALEKEVAALEKEVAALEKTREQKLISEEDGSGIQNPDPAVYQLRDSKSSDKSVCLFTDFDSQTNVSQSKDSDVYITDKCVLDMRSMDFKSNSAVAWSNKSDFACANAFNNSIIPEDTFFPSSDVPCDVKLVEKSFETDTNLNFQNLSVIGFRILLLKVAGFNLLMTLRLWSSRAKRSGSGVKQTLNFDLLKLAGDVESNPGPSRGHMTEYKPTVRLATRDDVPRAVRTLAAAFADYPATRHTVDPDRHIERVTELQELFLTRVGLDIGKVWVADDGAAVAVWTTPESVEAGAVFAEIGPRMAELSGSRLAAQQQMEGLLAPHRPKEPAWFLATVGVSPDHQGKGLGSAVVLPGVEAAERAGVPAFLETSAPRNLPFYERLGFTVTADVEVPEGPRTWCMTRKPGA |  |  | NFAT-GFP ASSAY Positive Cell lines: L363 (SIR-expressing Jurkat-NFAT-GFP cells cocultured with L363, relative % GFP positive cells): L363 (+/−), U266; NFAT-GFP ASSAY Positive Cell lines: U266 (SIR-expressing Jurkat-NFAT-GFP cells cocultured with U266, relative % GFP positive cells): (+/−)
4 | 012517-G12 (protein) MALPVTALLLPLALLLHAARPLEGKPIPNPLLGLDSTGSGEDLKNVFPPEVAVFEPSKAEIAHTQKATLVCLATGFYPDHVELSWWVNGKEVHSGVCTDPQPLKEQPALNDSRYCLSSRLRVSATFWQNPRNHFRCQVQFYGLSENDEWTQDRAKPVTQIVSAEAWGRADCGITSASYHQGVLSATILYEILLGKATLYAVLVSALVLMAMVKRKDSRGRAKRSGSGATNFSLLKQAGDVEENPGPTSMALPVTALLLPLALLLHAARPDFVMTQSPDSLAVSLGERVTMSCKSSQSLLNSGNQKNYLTWYQQKPGQPPKLLIYWASTRESGVPDRFSGSGSGTDFTLTISSLQAEDVAVYYCQNDYSYPYTFGQGTKLEIKGGGGSGGGGSGGGGSQVQLVQSGAELKKPGASVKVSCKASGYTFTDYYMKWVRQAPGQGLEWIGDIIPSNGATFYNQKFKGRVTITVDKSTSTAYMELSSLRSEDTAVYYCARSHLLRASWFAYWGQGTLVTVSSTREQKLISEEDGSGIQNPDPAVYQLRDSKSSDKSVCLFTDFDSQTNVSQSKDSDVYITDKCVLDMRSMDFKSNSAVAWSNKSDFACANAFNNSIIPEDTFFPSSDVPCDVKLVEKSFETDTNLNFQNLSVIGFRILLLKVAGFNLLMTLRLWSSRAKRSGSGVKQTLNFDLLKLAGDVESNPGPSRGHMTEYKPTVRLATRDDVPRAVRTLAAAFADYPATRHTVDPDRHIERVTELQELFLTRVGLDIGKVWVADDGAAVAVWTTPESVEAGAVFAEIGPRMAELSGSRLAAQQQMEGLLAPHRPKEPAWFLATVGVSPDHQGKGLGSAVVLPGVEAAERAGVPAFLETSAPRNLPFYERLGFTVTADVEVPEGPRTWCMTRKPGA |  | L428 (+/−) | 
5 | 012517-J12 (protein) MALPVTALLLPLALLLHAARPLEGKPIPNPLLGLDSTGSGEDLKNVFPPEVAVFEPSKAEIAHTQKATLVCLATGFYPDHVELSWWVNGKEVHSGVCTDPQPLKEQPALNDSRYCLSSRLRVSATFWQNPRNHFRCQVQFYGLSENDEWTQDRAKPVTQIVSAEAWGRADCGITSASYHQGVLSATILYEILLGKATLYAVLVSALVLMAMVKRKDSRGRAKRSGSGATNFSLLKQAGDVEENPGPTSMALPVTALLLPLALLLHAARPDIQMTQSPASLSASLGETVTIECRTSKDIYSNLAWFQQEPGNSPQLLIYDASNLADGVPSRFSGSGSGTQYSLQINNLQSEDVASYFCHQYNNYPYTFGTGTKLELKGGGGSGGGGSGGGGSQVQLQESGPTLVNPGDSVKMSCKASGYTFTDHIIHWVKQSHGKSLEWIGYINPYSGGANYNGKFKSKATLTIDKSSSTAYMEFSRLTSGDSAIYYCALNYGSYYAMDAWGQGTSVTVSSTREQKLISEEDGSGIQNPDPAVYQLRDSKSSDKSVCLFTDFDSQTNVSQSKDSDVYITDKCVLDMRSMDFKSNSAVAWSNKSDFACANAFNNSIIPEDTFFPSSDVPCDVKLVEKSFETDTNLNFQNLSVIGFRILLLKVAGFNLLMTLRLWSSRAKRSGSGVKQTLNFDLLKLAGDVESNPGPSRGHMTEYKPTVRLATRDDVPRAVRTLAAAFADYPATRHTVDPDRHIERVTELQELFLTRVGLDIGKVWVADDGAAVAVWTTPESVEAGAVFAEIGPRMAELSGSRLAAQQQMEGLLAPHRPKEPAWFLATVGVSPDHQGKGLGSAVVLPGVEAAERAGVPAFLETSAPRNLPFYERLGFTVTADVEVPEGPRTWCMTRKPGA |  | L428 (2+) | 
6 | 012517-M12 (protein) MALPVTALLLPLALLLHAARPLEGKPIPNPLLGLDSTGSGEDLKNVFPPEVAVFEPSKAEIAHTQKATLVCLATGFYPDHVELSWWVNGKEVHSGVCTDPQPLKEQPALNDSRYCLSSRLRVSATFWQNPRNHFRCQVQFYGLSENDEWTQDRAKPVTQIVSAEAWGRADCGITSASYHQGVLSATILYEILLGKATLYAVLVSALVLMAMVKRKDSRGRAKRSGSGATNFSLLKQAGDVEENPGPTSMALPVTALLLPLALLLHAARPDVLMTQTPVSLPVSLGGQVSISCRSSQSLVHSDGDTYLHWYLQKPGQSPQLLIYRVSNRFSGVPDRFSGSGSGTDFTLKISRVEPEDLGLYYCLQTTHFPPWTFGGGTKLEMKGGGGSGGGGSGGGGSQVQLQQSGPELRRPGSSVRLSCKASGYRIKDFLIHWIKNRPEHGLEWIGWIDPEDGETKYAQKFQTKATLTADTSSNTAYMQLSSLTSEDTATYFCARWGDVYYGLMRGHVMDAWGQGTSVTVSSTREQKLISEEDGSGIQNPDPAVYQLRDSKSSDKSVCLFTDFDSQTNVSQSKDSDVYITDKCVLDMRSMDFKSNSAVAWSNKSDFACANAFNNSIIPEDTFFPSSDVPCDVKLVEKSFETDTNLNFQNLSVIGFRILLLKVAGFNLLMTLRLWSSRAKRSGSGVKQTLNFDLLKLAGDVESNPGPSRGHMTEYKPTVRLATRDDVPRAVRTLAAAFADYPATRHTVDPDRHIERVTELQELFLTRVGLDIGKVWVADDGAAVAVWTTPESVEAGAVFAEIGPRMAELSGSRLAAQQQMEGLLAPHRPKEPAWFLATVGVSPDHQGKGLGSAVVLPGVEAAERAGVPAFLETSAPRNLPFYERLGFTVTADVEVPEGPRTWCMTRKPGA |  | L428 (+) | 
